Columns and labels:
[1] = molecular target: T1, Drosophila Ena (overexpressed in BG2-c2 cells), Q8T4F7
T1 chain: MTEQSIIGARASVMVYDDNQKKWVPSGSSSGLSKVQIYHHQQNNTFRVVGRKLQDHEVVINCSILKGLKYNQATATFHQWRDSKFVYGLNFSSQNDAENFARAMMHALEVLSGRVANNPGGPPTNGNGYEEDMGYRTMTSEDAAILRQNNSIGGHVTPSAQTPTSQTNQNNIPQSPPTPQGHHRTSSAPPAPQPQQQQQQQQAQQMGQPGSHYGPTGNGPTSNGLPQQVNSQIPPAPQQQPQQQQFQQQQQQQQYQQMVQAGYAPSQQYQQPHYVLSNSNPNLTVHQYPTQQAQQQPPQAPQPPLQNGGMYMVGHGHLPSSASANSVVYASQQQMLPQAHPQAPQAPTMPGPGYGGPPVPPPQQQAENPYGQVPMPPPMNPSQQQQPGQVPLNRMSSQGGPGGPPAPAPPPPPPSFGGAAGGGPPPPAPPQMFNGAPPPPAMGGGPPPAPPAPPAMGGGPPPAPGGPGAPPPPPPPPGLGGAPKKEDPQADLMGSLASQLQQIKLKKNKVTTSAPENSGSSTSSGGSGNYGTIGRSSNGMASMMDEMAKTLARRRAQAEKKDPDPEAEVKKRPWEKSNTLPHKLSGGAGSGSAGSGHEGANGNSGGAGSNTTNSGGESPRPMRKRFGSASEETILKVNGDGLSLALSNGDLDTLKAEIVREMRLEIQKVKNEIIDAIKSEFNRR

[2] = molecular target: Drosophila Cdk5 (endogenous, BG2-c2 neuronal cells), P48609
Chain of Drosophila Cdk5 (endogenous, BG2-c2 neuronal cells), P48609 (P48609 whole entry): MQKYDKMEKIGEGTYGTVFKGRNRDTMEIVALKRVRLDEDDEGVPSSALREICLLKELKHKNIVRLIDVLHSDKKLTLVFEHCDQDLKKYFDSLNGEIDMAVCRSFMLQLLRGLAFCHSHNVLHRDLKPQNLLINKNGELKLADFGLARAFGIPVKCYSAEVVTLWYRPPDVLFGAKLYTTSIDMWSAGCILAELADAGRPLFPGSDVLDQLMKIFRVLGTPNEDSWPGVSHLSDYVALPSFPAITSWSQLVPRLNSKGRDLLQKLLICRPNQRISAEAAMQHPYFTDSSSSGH

B1: Drosophila Abl kinase (endogenous, BG2-c2 neuronal cells) (protein)
chain: MGAQQGKDRGAHSGGGGSGAPVSCIGLSSSPVASVSPHCISSSSGVSSAPLGGGSTLRGSRIKSSSSGVASGSGSGGGGGGSGSGLSQRSGGHKDARCNPTVGLNIFTEHNEALLQSRPLPHIPAGSTAASLLADAAELQQHQQDSGGLGLQGSSLGGGHSSTTSVFESAHRWTSKENLLAPGPEEDDPQLFVALYDFQAGGENQLSLKKGEQVRILSYNKSGEWCEAHSDSGNVGWVPSNYVTPLNSLEKHSWYHGPISRNAAEYLLSSGINGSFLVRESESSPGQRSISLRYEGRVYHYRISEDPDGKVFVTQEAKFNTLAELVHHHSVPHEGHGLITPLLYPAPKQNKPTVFPLSPEPDEWEICRTDIMMKHKLGGGQYGEVYEAVWKRYGNTVAVKTLKEDTMALKDFLEEAAIMKEMKHPNLVQLIGVCTREPPFYIITEFMSHGNLLDFLRSAGRETLDAVALLYMATQIASGMSYLESRNYIHRDLAARNCLVGDNKLVKVADFGLARLMRDDTYTAHAGAKFPIKWTAPEGLAYNKFSTKSDVWAFGVLLWEIATYGMSPYPAIDLTDVYHKLDKGYRMERPPGCPPEVYDLMRQCWQWDATDRPTFKSIHHALEHMFQESSITEAVEKQLNANATSASSSAPSTSGVATGGGATTTTAASGCASSSSATASLSLTPQMVKKGLPGGQALTPNAHHNDPHQQQASTPMSETGSTSTKLSTFSSQGKGNVQMRRTTNKQGKQAPAPPKRTSLLSSSRDSTYREEDPANARCNFIDDLSTNGLARDINSLTQRYDSETDPAADPDTDATGDSLEQSLSQVIAAPVTNKMQHSLHSGGGGGGIGPRSSQQHSSFKRPTGTPVMGNRGLETRQSKRSQLHSQAPGPGPPSTQPHHGNNGVVTSAHPITVGALDVMNVKQVVNRYGTLPKGARIGAYLDSLEDSSEAAPALPATAPSLPPANGHATPPAARLNPKASPIPPQQMIRSNSSGGVTMQNNAAASLNKLQRHRTTTEGTMMTFSSFRAGGSSSSPKRSASGVASGVQPALANLEFPPPPLDLPPPPEEFEGGPPPPPPAPESAVQAIQQHLHAQLPNNGNISNGNGTNNNDSSHNDVSNIAPSVEEASSRFGVSLRKREPSTDSCSSLGSPPEDLKEKLITEIKAAGKDTAPASHLANGSGIAVVDPVSLLVTELAESMNLPKPPPQQQQKLTNGNSTGSGFKAQLKKVEPKKMSAPMPKAEPANTIIDFKAHLRRVDKEKEPATPAPAPATVAVANNANCNTTGTLNRKEDGSKKFSQAMQKTEIKIDVTNSNVEADAGAAGEGDLGKRRSTGSINSLKKLWEQQPPAPDYATSTILQQQPSVVNGGGTPNAQLSPKYGMKSGAINTVGTLPAKLGNKQPPAAPPPPPPNCTTSNSSTTSISTSSRDCTSRQQASSTIKTSHSTQLFTDDEEQSHTEGLGSGGQGSADMTQSLYEQKPQIQQKPAVPHKPTKLTIYATPIAKLTEPASSASSTQISRESILELVGLLEGSLKHPVNAIAGSQWLQLSDKLNILHNSCVIFAENGAMPPHSKFQFRELVTRVEAQSQHLRSAGSKNVQDNERLVAEVGQSLRQISNALNR
**Q.** With B1 as the protein, how does the “tyrosine-phosphorylation level of Ena” value [1] read?
**A.** Ena phosphorylation levels were elevated by Aβ42 but reduced by STI571

**Q.** What about the “Cdk5-Y15 phosphorylation (Cdk5-pY15) and Cdk5 kinase activity after STI571 or dsRNA-abl” value [2] of the same protein?
**A.** both the Cdk5-pY15 and kinase activity were diminished
